Patent US7968306B2 (Wisconsin Alumni Research Foundation, priority 2002, dated 2011)

T1: porcine pancreatic lipase (Sus scrofa, UniProt P00591)
T1 construct: purchased Sigma; host or cells: porcine pancreas
T1 sequence (P00591 1-450): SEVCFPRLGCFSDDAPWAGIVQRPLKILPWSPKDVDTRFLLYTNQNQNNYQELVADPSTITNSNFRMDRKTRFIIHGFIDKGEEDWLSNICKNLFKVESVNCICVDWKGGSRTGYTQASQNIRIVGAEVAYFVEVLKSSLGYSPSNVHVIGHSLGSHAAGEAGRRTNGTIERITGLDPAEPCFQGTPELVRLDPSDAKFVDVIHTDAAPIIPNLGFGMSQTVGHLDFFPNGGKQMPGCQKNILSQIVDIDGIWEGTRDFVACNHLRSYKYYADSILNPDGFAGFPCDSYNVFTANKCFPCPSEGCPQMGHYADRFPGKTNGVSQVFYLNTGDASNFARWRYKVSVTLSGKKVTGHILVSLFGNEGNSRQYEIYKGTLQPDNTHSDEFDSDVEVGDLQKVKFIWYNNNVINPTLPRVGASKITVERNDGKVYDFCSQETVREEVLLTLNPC

B1: annexin I: native rabbit lung annexin I protein (protein, UniProt P51662 2-346, looked up)
Annexin A1: AMVSEFLKQAWFIDNEEQDYINTVKTYKGGPGSAVSPYPAFNPSSDVAALHQAIMVKGVDEATIIDILTKRNNAQRQQIKAAYLQEKGKPLDEVLKKALTGHLEEVVLALLKTPAQFDADELRAAMKGLGTDEDTLIEILASRNNKEIREINRVYREELKRDLAKDIASDTSGDFQKALLSLAKGDRSEDFGVNEDLADTDARALYEAGERRKGADVNVFTTILTTRSYLHLRRVFQKYSKYSQHDMNKVLDLELKGDIEKCLTAIVQCATCKPAYFAEKLYQAMKGAGTRHKALIRIMVSRSEVDMNDIKAFYQKKYGVSLCQAILDETKGDYEKILVALCGGN
B2: annexin VIII: native rabbit lung annexin VIII protein (protein, UniProt O97529 1-327, looked up)
Annexin A8: MAWWKAWVEQEGVTVKGSPHFNPVPDAETLYKAMKGIGTNEQAIIDVLTRRSSAQRQQIAKSFKAQFGSDLTETLKSELSGKFERLIVALMYPPYRYEAKELHDAMKGLGTKEGVIIEILASRTKNQLQEIMKAYEEDYGSSLEEDIQADTSGYLERILVCLLQGSRDDVTGFVDPGLALQDAQDLYAAGEKICGTDEMKFITILCTRSARHLMRVFEEYEKIANKSIEDSIKSETHGSLEEAMLTIVKCTRNLHCYFAERLHYAMKGAGTLDGTLIRNIVSRSEIDLNLIKGHYKKMYGKTLSSMIMEDTSGDYKNALLSLVGSDP
B3: Truncated α1-AT: 48 kDa truncated human α1-AT (16His to 357Pro) isolated from heat-treated CF BALF; PLA2 stimulator (protein, listed as Homo sapiens)
chain: HDQDHPTFDKITPDLAEFAFSLYRQLAHQSDSTNIFFSPVSIAAAFAMLSLGAKGDTHDEILEGLNFNLTEIPEAQIHEGFQELLRTLNQPDSQLQLTTGNGLFLSEFLKLFDKFLEDFKKLYHSEAFTVNFGTDEEAKKQINDYVEKGTQGKIVNLVKELDRDTVFALVNYIFFKGKWERPFEVKDTEEEDFHVDQVTTVKVPMMKRLGMFNIQHCKKLSSWVLLMKYLGNATAIFFLPDEGKLQHLENELTHDIITKFLENEDRRSASLHLPKLSITGTYDLKSVLGQLGITKVFSNGADLSGVTEEAPLKLSKAVHKAVLTIDEKGTEAAGAMFLEAIP

Experiments:
[1] = target: PLC (Clostridium perfringens) (Clostridium perfringens, UniProt P0C216)
[2] = target: T1, porcine pancreatic lipase; assay: Fluorescent assay of lipase after PLC reaction; format: biochemical; details: FIG. 42
[3] = target: porcine pancreatic PLA2 (Sus scrofa, UniProt P00592); assay: Continuous fluorescent assay of PLA2 (Bis-BODIPY FL C11-PC labeled DOPC-PG liposomes); details: for loss of activity after treating the protein in boiling water: boiling water for 5 min; for TFI: 5 ng PLA2, 37° C., 2 min; for TFI / % of control: truncated α1-AT 6 μg, intact α1-AT 20 μg, albumin 20 μg
[4] = target: T2, pancreatic PLA2 (Sus scrofa, UniProt P00592); assay: Radioactive assay of PLA2 (14C-labeled liposomes); format: biochemical, porcine; details: 10 μg rabbit lung annexin, FIG. 25
T2 construct: purchased Sigma Chemical (St. Louis, Mo.); host or cells: porcine pancreas
Protocol: Radioactive assay of PLA2. […] In some tests, 25-100 μg of CF BALF proteins, or 10 μg of rabbit lung annexin I or annexin VIII or both were added to the reaction mixture as specified. The reaction was carried out at room temperature for 30 sec and stopped by adding 2 ml of chloroform:methanol (1:2 vol) followed by addition of 0.4 ml water, and 10 μl of egg PC and lysoPC (20 nmol) which was used as carrier. The test tube was stirred using a Vortex. Lipids were extracted by adding additional 0.6 ml water and 0.6 ml chloroform. After agitating on a vortex, the mixture was centrifuged at 2,000 rpm for 10 min. The chloroform layer was withdrawn and transferred to a new test tube using a Pasteur pipette. Chloroform was evaporated to dryness under a flow of nitrogen. PC and lysoPC were isolated by the methods of silica gel thin-layer chromatography (TLC) using a developing solvent system of chloroform/methanol/water in a ratio of 65/45/5 as described previously (41). Lipids on the TLC plate were visualized by exposure of the TLC plate in an iodine tank. […] Radioactivity in the vial was determined by using a beta scintillation counter. PLA2 activity was expressed as either decrease in PC radioactivity or increase in fatty acid or lysoPC radioactivity as described previously (41).

[5] = with lysoPC (9 nmol), control LysoPC + PLA2
[6] = without lysoPC, control PLA2 (5 ng)

Chain of porcine pancreatic PLA2 (P00592 23-146): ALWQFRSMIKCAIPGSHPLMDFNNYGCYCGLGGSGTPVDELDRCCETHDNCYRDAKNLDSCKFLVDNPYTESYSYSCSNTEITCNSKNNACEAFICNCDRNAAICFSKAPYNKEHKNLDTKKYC
T2 sequence (P00592 23-146): as above

Molecule | effect on PLC activity [1] | effect on lipase activity [2] | loss of activity after treating the protein in boiling water [3] | TFI ([3]; with lysoPC (9 nmol)) | % of control [3, 5] [%] | TFI ([3]; without lysoPC) | % of control [3, 6] [%] | inhibition of PLA2 and PLA2-s activities [4] | also measured
Intact α1-AT: intact 52 kDa human serum α1-AT; serum PLA2-s (protein-II) purified from human serum | effectively inhibited PLC activity | no effect on the lipase activity | less than 20% | 29.81 | 151.4 | 68.96 | 183.3 | – | effect on PLA2 activity ([3]; wide range of protein concentrations): exhibited only PLA2-stimulating activity
Human serum α1-AT: human serum α1-AT obtained from Sigma Chemical Co. | inhibited PLC activity | – | not affected | – | – | – | – | – | effect of commercial α1-AT on PLA2 activity ([3]; Sigma product, FIG. 44A): stimulated PLA2 activity
B1 | – | – | – | – | – | – | – | significantly inhibited | inhibition of PLA2 activity and of the effect of truncated α1-AT on PLA2 stimulation ([3]; fluorescent assay, FIG. 46B): markedly inhibited
B2 | – | – | – | – | – | – | – | significantly inhibited | –
B3 | effectively inhibited PLC activity | no effect on the lipase activity | heat stable | 31.82 | 161.6 | 57.23 | 152.1 | – | effect of isolated PLA2-s on pancreatic PLA2 activity ([3]; 6 μg PLA2-s, FIG. 29B): exhibited PLA2-stimulating activity; effect on PLA2 activity with 50% PC-50% PG liposomes ([3]; 6 μg truncated α1-AT, 37° C.): markedly stimulated; effect on PLA2 activity with 90% PC-10% PG liposomes ([3]; 6 μg truncated α1-AT, 37° C.): did not significantly enhance the PLA2 activity; effect on PLA2 activity with 100% PC liposomes ([3]; 6 μg truncated α1-AT, 37° C.): did not stimulate PLA2 activity
